Measured values from patent US20220396632A1 (VERSEAU THERAPEUTICS, published 2022).

T1: Biotin PSGL-1(42-62) P55A peptide (C-terminal Lys-biotin)
T1 peptide: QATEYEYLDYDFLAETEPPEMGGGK

T2: Biotin PSGL-1(42-62) D52A peptide (C-terminal Lys-biotin)
T2 peptide: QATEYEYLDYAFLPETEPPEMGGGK


Assays:
[1] = molecular target: T1, Biotin PSGL-1(42-62) P55A peptide; assay: ELISA; against wild-type PSGL-1 42-62
[2] = molecular target: T2, Biotin PSGL-1(42-62) D52A peptide; assay: ELISA; against wild-type PSGL-1 42-62

EC50Ala/EC50 wt [1] [fold] | EC50Ala/EC50 wt [2] [fold] | Binder
> 100 |  | 9F9 (antibody, V domains shown, Control anti-PSGL-1 mAb, recombinant; only variable domains given; also called 9F6) VH: EVQLVETGGGLVQPKGSLKLSCAASGFTFNTNAMNWVRQAPGKGLEWVARIRSKSNNYATYYADSVKDRFTISRDDTQSMIYLQMNNLKTEDTGMYYCVRGGSYWYFDVWGAGTTVTVSS VL: DVLMTQTPLSLPVSLGDQASISCRSSQSIVNSNGNTYLEWYLQKPGQSPKLLIYKVSNRFSGVPDRFSGSGSGTDFTLKISRVEAEDLGVYYCFQGSHVPWTFGGGTKLEIK
68.4 | 15.9 | 19I01 (antibody, V domains shown, From mouse immunisation; only variable domains given; also called 19101) VH: EVQLVESGGGLVKPGGSRKLSCAASGFTFSDYGMHWVRQAPEKGLEWVAYISSGSSTIYYADTVKGRFTISRDNAKNTLFLQMTSLRSEDTAMYYCARGVDGYWGQGTTLTVSS VL: DVVMTQTPLSLPVSLGDQASISCRSSQSLVHSNGNTYLHWYLQKPGQSPKFLIYKVSNRFSGVPDRFSGSGSGTDFTLKISRVEAEDLGVYFCSQTTHVPLTFGAGTKLELK
